{
  "source": "patent US20230391826A1",
  "about": "(SANFORD BURNHAM PREBYS MEDICAL DISCOVERY INSTITUTE, published 2023)",
  "binders": {"B1": {"name": "YSA-GSGSK-bio (peptide)", "peptide": "YSAYPDSVPMMSGSGSK(Biotin)", "notes": "Previously identified monomer, included for comparison; also called monomer (2*); 2*"}, "B2": {"name": "L223R/L254R/V255R (receptor)", "chain": "AQGKEVVLLDFAAAGGELGWLTHPYGKGWDLMQNIMNDMPIYMYSVCNVMSGDQDNWLRTNWVYRGEAERIFIELKFTVRDCNSFPGGASSCKETFNLYYAESDLDYGTNFQKRLFTKIDTIAPDEITVSSDFEARHVKLNVEERSVGPLTRKGFYLAFQDIGACVALLSVRVYYKKCPELLQGLAHFPETIAGSDAPSRATVAGTCVDHAVVPPGGEEPRMHCAVDGEWRRPIGQCLCQAGYEKVEDACQACSPGFFKFEASESPCLECPEHTLPSPEGATSCECEEGFFRAPQDPASMPCTRPPSAPHYLTAVGMGAKVELRWTPPQDSGGREDIVYSVTCEQCWPESGECGPCEASVRYSEPPHGLTRTSVTVSDLEPHMNYTFTVEARNGVSGLVTSRSFRTASVSINQTEPPKVRLEGRSTTSLSVSWSIPPPQQSRVWKYEVTYRKKGDSNSYNVRRTEGFSVTLDDLAPDTTYLVQVQALTQEGQGAGSKVHEFQTLSPEGSGNLAVIGGVAVGVVLLLVLAGVGFFIHRRRKNQRARQSPEDVYFSKSEQLKPLKTYVDPHTYEDPNQAVLKFTTEIHPSCVTRQKVIGAGEFGEVYKGMLKTSSGKKEVPVAIKTLKAGYTEKQRVDFLGEAGIMGQFSHHNIIRLEGVISKYKPMMIITEYMENGALDKFLREKDGEFSVLQLVGMLRGIAAGMKYLANMNYVHRDLAARNILVNSNLVCKVSDFGLSRVLEDDPEATYTTSGGKIPIRWTAPEAISYRKFTSASDVWSFGIVMWEVMTYGERPYWELSNHEVMKAINDGFRLPTPMDCPSAIYQLMMQCWQQERARRPKFADIVSILDKLIRAPDSLKTLADFDPRVSIRLPSTSGSEGVPFRTVSEWLESIKMQQYTEHFMAAGYTAIEKVVQMTNDDIKRIGVRLPGHQKRIAYSLLGLKDQVNTVGIPI", "modifications": "Carries mTURQ (donor) or EYFP (acceptor) at the C-terminus. The tag is not in the letters.", "notes": "mutant of m18 used in the FRET experiments; also called EphA2 L223R/L254R/V255R; clustering interface mutant; not shown: C-terminal fluorescent protein (mTURQ or EYFP) and any linker to it"}, "B3": {"name": "CGA-WLA-YR dimer (N-ter) (peptide)", "peptide": "CGAWLAYPDSVPYR", "modifications": "also: homodimer: N-terminal Cys of two chains joined by disulfide", "notes": "N-terminally disulfide-linked homodimer made from monomer (15*); also called dimer (4)"}, "B4": {"name": "linear dimer (head-to-tail) (peptide)", "peptide": "[βAla]WLAYPDSVPYRPKGGAWLAYPDSVPYRPK-NH2", "modifications": "N-terminus assumed", "SMILES": "CC(C)C[C@H](NC(=O)[C@H](Cc1c[nH]c2ccccc12)NC(=O)CCN)C(=O)N[C@@H](C)C(=O)N[C@@H](Cc1ccc(O)cc1)C(=O)N1CCC[C@H]1C(=O)N[C@@H](CC(=O)O)C(=O)N[C@@H](CO)C(=O)N[C@H](C(=O)N1CCC[C@H]1C(=O)N[C@@H](Cc1ccc(O)cc1)C(=O)N[C@@H](CCCNC(=N)N)C(=O)N1CCC[C@H]1C(=O)N[C@@H](CCCCN)C(=O)NCC(=O)NCC(=O)N[C@@H](C)C(=O)N[C@@H](Cc1c[nH]c2ccccc12)C(=O)N[C@@H](CC(C)C)C(=O)N[C@@H](C)C(=O)N[C@@H](Cc1ccc(O)cc1)C(=O)N1CCC[C@H]1C(=O)N[C@@H](CC(=O)O)C(=O)N[C@@H](CO)C(=O)N[C@H](C(=O)N1CCC[C@H]1C(=O)N[C@@H](Cc1ccc(O)cc1)C(=O)N[C@@H](CCCNC(=N)N)C(=O)N1CCC[C@H]1C(=O)N[C@@H](CCCCN)C(N)=O)C(C)C)C(C)C"}, "B5": {"name": "Lys-linked dimer (C-ter) (peptide)", "peptide 1": "[βAla]WLAYPDSVPYRPKK", "peptide 2": "[βAla]WLAYPDSVPYRPK", "modifications": "also: bond at chain A 15 to a chain's C-terminus"}},
  "key": {"[1]": {"molecular_target": "T1, EphA2 extracellular domain fused to the Fc portion of an antibody (EphA2-Fc)", "T1 construct": "extracellular domain; Immobilized on the ELISA wells; also called immobilized EphA2", "assay": "ELISA, inhibition of ephrinA5-AP binding to immobilized EphA2-Fc"}, "[2]": {"molecular_target": "the molecule itself", "assay": "quantitative FRET between mTURQ- and EYFP-tagged EphA2 L223R/L254R/V255R in HEK293 cells, no ligand; self-association, monomer-dimer fit"}, "[3]": {"molecular_target": "T2, EphA2 endogenously expressed on PC3 prostate cancer cells (UniProt P29317 24-976, limits assumed)", "assay": "cell-based or functional assay"}, "[4]": {"molecular_target": "T2, EphA2 endogenously expressed on PC3 …", "assay": "cell-based or functional assay", "remark": "listed apart in the source"}, "[5]": {"molecular_target": "T3, EphA2 ligand binding domain (EphA2 LBD), residues 28-200 (UniProt P29317 28-200)", "T3 construct": "range 28-200; Expressed in E. coli; also called soluble EphA2 LBD; soluble monomeric EphA2 LBD", "T3 sequence (P29317 other isoform, or with tags, fused parts or gaps limits assumed, form in doubt)": "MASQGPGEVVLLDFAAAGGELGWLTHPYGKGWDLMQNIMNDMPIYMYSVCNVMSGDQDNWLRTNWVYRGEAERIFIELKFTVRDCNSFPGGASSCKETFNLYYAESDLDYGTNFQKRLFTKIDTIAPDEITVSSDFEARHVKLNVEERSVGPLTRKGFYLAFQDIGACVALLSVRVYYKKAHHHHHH", "assay": "ITC, soluble EphA2 LBD and peptide"}, "[6]": {"molecular_target": "T3, EphA2 ligand binding domain (EphA2 …)", "assay": "ITC, soluble EphA2 LBD and peptide", "procedure": "(§1) For ITC, all peptides are dissolved in DMSO and both the EphA2 LBD and the peptides are diluted to obtain a final buffer containing 9.5 mM HEPES, pH 7.9, 95 mM NaCl, and 5% DMSO. The experiments are carried out at 296 K (23° C.) using an ITC200 calorimeter (Microcal). Two-microliter aliquots of a peptide solution are injected into the cell containing 205 μL EphA2 LBD. 200-400 μM peptides are titrated into 20-40 μM EphA2 LBD. Experimental data are analyzed using the Origin software package (Microcal). The integrated values for the reaction heats are normalized to the amount of injected peptide after blank subtraction.", "remark": "listed apart in the source"}, "[7]": {"molecular_target": "T3, EphA2 ligand binding domain (EphA2 …)", "assay": "ITC, soluble EphA2 LBD and peptide", "procedure": "as §1", "remark": "listed apart in the source"}, "[8]": {"molecular_target": "T1, EphA2 extracellular domain fused to the …", "assay": "ELISA, inhibition of ephrinA5-AP binding to immobilized EphA2-Fc", "remark": "listed apart in the source"}, "[9]": {"molecular_target": "T3, EphA2 ligand binding domain (EphA2 …)", "assay": "ITC, EphA2 LBD (200-250 µM) titrated into 10-12.5 µM peptide; single titration shown"}, "[10]": {"molecular_target": "T1, EphA2 extracellular domain fused to the …", "assay": "ELISA, inhibition of ephrinA5-AP binding to immobilized EphA2-Fc; representative experiment, triplicates"}, "[11]": {"molecular_target": "T2, EphA2 endogenously expressed on PC3 …", "assay": "cell-based or functional assay", "remark": "listed apart in the source"}},
  "note": "Read-outs that look alike come from different tables or passages of the source. Where no end group is shown, it is not given here. [ ]: non-standard residue; d: D form. The star is where a group is joined. Biotin = O=C1N[C@H]2[C@H](CS[C@H]2CCCCC(=O)*)N1; βAla = NCCC(=O)O",
  "data": [
    {"binder": "B1", "values": [
      {"measurement": "IC50", "setting": "[1]", "result": 850, "unit": "nM"}
    ]},
    {"binder": "B2", "values": [
      {"measurement": "binding result", "setting": "[2]", "result": "binds"}
    ]},
    {"binder": "B3", "values": [
      {"measurement": "agonistic potency (pY588), fold lower than the other dimers with similar configuration", "setting": "[3]", "result": "10 to 60", "unit": "fold"},
      {"measurement": "EC50 pAKT inhib", "setting": "[4]", "result": 0.53, "unit": "nM"},
      {"measurement": "Etop pAKT inhib", "setting": "[4]", "result": 0.9},
      {"measurement": "Etop pY588", "setting": "[4]", "result": "0.94 normalized to ephrinA1-Fc"},
      {"measurement": "βlig (bias factor)", "setting": "[4]", "result": 0.47},
      {"measurement": "Kd", "setting": "[5]", "result": 104, "unit": "nM"},
      {"measurement": "N (binding stoichiometry)", "setting": "[5]", "result": 2},
      {"measurement": "Kd", "setting": "[6]", "result": 104, "unit": "nM"},
      {"measurement": "N (binding stoichiometry)", "setting": "[6]", "result": 2},
      {"measurement": "-TΔS", "setting": "[7]", "result": 23.6, "unit": "kcal/mol"},
      {"measurement": "Kd", "setting": "[7]", "result": 104, "unit": "nM"},
      {"measurement": "N (binding stoichiometry)", "setting": "[7]", "result": 2},
      {"measurement": "ΔG", "setting": "[7]", "result": -9.47, "unit": "kcal/mol"},
      {"measurement": "ΔH", "setting": "[7]", "result": -33.1, "unit": "kcal/mol"},
      {"measurement": "IC50", "setting": "[8]", "result": 7.9, "unit": "nM"},
      {"measurement": "IC50", "setting": "[1]", "result": 7.9, "unit": "nM"},
      {"measurement": "Kd", "setting": "[9]", "result": 103, "unit": "nM"},
      {"measurement": "IC50", "setting": "[10]", "result": 6.7, "unit": "nM"}
    ]},
    {"binder": "B4", "values": [
      {"measurement": "Blig (bias factor)", "setting": "[11]", "result": 0.62},
      {"measurement": "EC50 PY588", "setting": "[11]", "result": 0.49, "unit": "nM"},
      {"measurement": "Emax PY588", "setting": "[11]", "result": "0.61 normalized to ephrinA1-Fc"},
      {"measurement": "IC50 PAKT", "setting": "[11]", "result": 0.12, "unit": "nM"},
      {"measurement": "EC50 pAKT inhib", "setting": "[4]", "result": 90, "unit": "pM"},
      {"measurement": "EC50 pY588", "setting": "[4]", "result": 0.73, "unit": "nM"},
      {"measurement": "Etop pAKT inhib", "setting": "[4]", "result": 0.87},
      {"measurement": "Etop pY588", "setting": "[4]", "result": "0.76 normalized to ephrinA1-Fc"},
      {"measurement": "βlig (bias factor)", "setting": "[4]", "result": 0.62}
    ]},
    {"binder": "B5", "values": [
      {"measurement": "Blig (bias factor)", "setting": "[11]", "result": 0.79},
      {"measurement": "EC50 PY588", "setting": "[11]", "result": 2.4, "unit": "nM"},
      {"measurement": "Emax PY588", "setting": "[11]", "result": "0.37 normalized to ephrinA1-Fc"},
      {"measurement": "IC50 PAKT", "setting": "[11]", "result": 0.63, "unit": "nM"},
      {"measurement": "EC50 pAKT inhib", "setting": "[4]", "result": 0.42, "unit": "nM"},
      {"measurement": "EC50 pY588", "setting": "[4]", "result": 2.6, "unit": "nM"},
      {"measurement": "Etop pAKT inhib", "setting": "[4]", "result": 1},
      {"measurement": "Etop pY588", "setting": "[4]", "result": "0.46 normalized to ephrinA1-Fc"},
      {"measurement": "βlig (bias factor)", "setting": "[4]", "result": 0.79}
    ]}
  ]
}
